The values that follow are results of earlier work, collected in publication PMC10287730.

The data set has as its target TLR4 (Homo sapiens) (UniProt O00206).

Chain of Galectin-3 (P17931 2-250): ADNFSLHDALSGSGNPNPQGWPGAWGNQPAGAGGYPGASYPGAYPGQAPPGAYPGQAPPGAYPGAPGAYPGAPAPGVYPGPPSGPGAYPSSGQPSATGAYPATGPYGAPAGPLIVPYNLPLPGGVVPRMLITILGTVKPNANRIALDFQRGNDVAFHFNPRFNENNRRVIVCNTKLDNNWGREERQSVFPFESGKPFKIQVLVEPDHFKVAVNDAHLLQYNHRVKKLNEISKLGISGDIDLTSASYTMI
Chain of TLR4 (Homo sapiens) (O00206 24-839): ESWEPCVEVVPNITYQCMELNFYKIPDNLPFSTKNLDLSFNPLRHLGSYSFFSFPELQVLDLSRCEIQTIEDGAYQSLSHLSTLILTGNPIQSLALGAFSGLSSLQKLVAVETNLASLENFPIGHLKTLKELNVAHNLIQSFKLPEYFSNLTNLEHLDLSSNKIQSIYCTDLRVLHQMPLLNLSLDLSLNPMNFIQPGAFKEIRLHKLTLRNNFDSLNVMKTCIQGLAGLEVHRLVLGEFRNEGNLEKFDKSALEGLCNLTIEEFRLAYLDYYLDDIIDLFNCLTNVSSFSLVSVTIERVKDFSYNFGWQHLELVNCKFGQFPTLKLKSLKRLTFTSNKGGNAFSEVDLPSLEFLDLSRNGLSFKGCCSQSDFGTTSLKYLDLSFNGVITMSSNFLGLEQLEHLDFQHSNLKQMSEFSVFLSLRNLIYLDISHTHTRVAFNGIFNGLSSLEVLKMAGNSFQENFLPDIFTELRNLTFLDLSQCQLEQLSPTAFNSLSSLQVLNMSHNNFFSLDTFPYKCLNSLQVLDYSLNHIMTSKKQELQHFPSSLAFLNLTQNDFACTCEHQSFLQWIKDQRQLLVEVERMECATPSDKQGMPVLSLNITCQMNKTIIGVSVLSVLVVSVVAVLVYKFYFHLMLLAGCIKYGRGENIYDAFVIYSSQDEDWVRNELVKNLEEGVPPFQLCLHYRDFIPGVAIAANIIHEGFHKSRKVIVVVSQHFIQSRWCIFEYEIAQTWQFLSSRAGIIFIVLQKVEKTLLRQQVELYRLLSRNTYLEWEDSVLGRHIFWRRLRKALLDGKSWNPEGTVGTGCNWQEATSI

What is called Kd is the equilibrium constant for the complex coming apart. Galectin-3 (from UniProt P17931): the Kd was 1 µM.
